Assay: yeast display, Sf9 membrane polyspecificity reagent, FACS + sequencing; frameworks hold sequencing errors
Procedure, shortened: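 Genes from sorted yeast were amplified by colony PCR, read by MiSeq 2 × 250 sequencing and filtered on CDR length. These cells carried a synthetic nanobody library in Saccharomyces cerevisiae BJ5465 and were sorted by FACS into low and high (top ~1%) gates on anti-HA and streptavidin fluorescence. Polyreactivity is labelled according to the gate of origin.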

Row | Sequence | polyreactivity (PSR sort gate)
1 | QVQLVESGGGLVQAGGSLRLSCAASGSIFWTNAMGWYRQAPGKERELVAAITSGGNTNYADSVKGRFTISRDNAKNTVYLQMNSLKPEDTAVYYCAARYGRGWRRTYTQYDSWGQGTQVTVSS | low polyreactivity
2 | QVQLVESGGGLVQAGGSLRLSCAASGLTFGRNAMGWYRQAPCKERDLVAAITFNGGSTYYADSVKGRFTISRDNEKNTVYIQMNSLKPEDTAVYYCAARLWRRTRFDYWGQGTQVTVSS | high polyreactivity
3 | QVQLLESGGGLVQAGGSLRLSCAASGFIFSKYAMGWYRQAPGKERELVAGINRSGGSTYYADSVKGRFTISRDNAKNTVYFQMNSLKPEDTAVYYCAAPFGVQSRWYGQSGYWGQGTQVTVSS | high polyreactivity
4 | QVQLVESGGGLVQAGGSLRLSCAASGFTFVHYAMGWYRQAPGKETELVAAISSGGSTYYADSVKGRFTISRDNAKNTVYLQLNSLKAEDTAVYYCAALKYSRGVRYGYWGQVTQVTVSS | high polyreactivity
5 | QVQLVESGGGLVQAGGSLRLICAASGYTFPDYAMGWYRPAPGTERELVAAIRSGGGTNYADSVKGRFTISRDNAKNSVYLQMNSMKPEDTAVFYCAKEWAGGLYDYWGQGTQVTVSS | low polyreactivity
6 | QVQLVESGGGLVQAGGSLRLSCAASGSTFGINAMGWYRQAPGKERELVAVIRAGGGRTYYADSVKGRFTISRDNAKNTVYLQMNSLKPEDTAVYYCAARYYSRYVSVYASSKTGYDYWGQGTQVTVSS | high polyreactivity
7 | QVQLEDSGGGLVQAGGSLRLSCAASGFNFYYNAMGWYRKAPGKERELVAAISWSDGGTYYADSVKGRFTISRDNAKNTVYLQMNSLKPEDTAFYYCAADFRLRAYYPGYEYWGQGTQVTVSS | low polyreactivity
8 | QVQLVESGGGLVQAGGSLRLSCAASGSTFSYYAMGWYRQAPGKERELVAAITSSGGSTYYADSVKGRFTISRDNAKNTVYLQMNSLKPEDTAVYYCNTAYHVPYDYWGQGTQVTVSS | low polyreactivity
9 | QVQLVESGGGIVQAGGSLRLSCAASGFTFSSYAMGWYRQAPGKERELVAAISSGGGSTYYADSVKGRFTISRDNAKNTVYLQMNSLKPEDTAVYYCAASHYYSNGYWGQGTQVTVSS | high polyreactivity
10 | QVQLVESGGGLVQAGGSLRLSCAASGITFFHYAMGWYRQAPGKERELVATISWRAGSTYADSVKGRFTISRDNAKNTVYLQMNSLKPEDTAVYYCNAVWTYHSGSGGYLFDYWGQGTQVTVSS | low polyreactivity
11 | QVQLVESGGGLVQAGGSLRLSCAASGSIFAPYDMGWYRQAPGKERELVAAIDWGGDSTYYADSVKGRFTISRDNAKNTVYLQMNSLKPEDTAVYYCAADDLWLSYRTEYDYYYWGQGTQVTVSS | low polyreactivity
12 | QVQLVETGGGLVQAGGSLRLSCAASVRIIWGNAMGWYRQAPGTERELVAALRASGGSTHYADSVKGRFTISRDNAKKTVYFQINSLKPEDTAVYYCIAVKRVGAYWGRSFAYYYWGQGTQVTVSS | high polyreactivity
13 | QVQLVESGGGLVQAGGSLRLSCAASGSTFVIYGMGWYRQAPGKERELVADITWIGGSTYYADSVKGRFTISRDNAKNTVYLQMNSLKPEDTAVYYCAADAAYLYLYNWYDTEDDYWGEGTQVTVSS | low polyreactivity
14 | QVQLVESGGGLVQAGGSLRLSCAASGSTFTSYAMGWYRQAPGKERELVAAIRYRGDGTYYADSVKGRFTISRDNAKNTVYLQMNSLKPEDTAVYYCAADSRVYRGGYIYRYGYWGQGTQVTVSS | low polyreactivity
15 | QVQLEDSGGGLFQAGGSLRLSCAASGNTFPVSYTMGWYIQAHRKEREFVAAISKDGGRTYYADSVKGRFTISRDNAKNTVYLQMNSLKPEDTAVYYCAARYSSSRGLSSEYWGQCTQVTVSS | high polyreactivity
16 | QVQLVESGGGLVQAGGSLRLSCAASGNTFTWYTMGWYRQAPGKERELVAAISSSGGNTYYADSVKGRFTISRDNAKNTVYLQMNSLKPEDTAVYYCAADLSSAYGHDYRGQGTQVTVSS | low polyreactivity
17 | QVQLVDSGGGLVQAGGSLRISCAASGFIFSSYAMGWSRQAPAKERELVAAISSRGGSTYYADSVKGRFTISRDNAKNTVYLQMNSLKPEDTAVYYCNAYLSPYVQTSRYDDDYWGQGTQVTVSS | high polyreactivity
18 | QVQLVESGGGLVQAGGSLRLSCAASGFIFDWNTMGWYRQAPGKERELVAAITESSGSTYYADSVKGRFTISRDNAKNTVYLQMNSLKPEDTAVYYCAADFSYVYYLYDYWGQGTQVTVSS | low polyreactivity
19 | QVQLVESGGGLVQAGGSRRLSCAASGRTFPYNAMGWYRQATGKERELVATNDSSGTRTFYADSVKGRFTISRDNAKNTVYLQLNRLKPEDNAVYYCAAGIIYSNETNITSYDYWGQGTQVTVSS | low polyreactivity
20 | QVQLVESGGGLVQAGGSLRLSCAASGRIFYRYAMGWYRQAPGKERELVAAITGSGGRTYADSVKGRFTISRDNAKNTVYLQMNSLKPEDTAVYYCNDRSFCPTESRYDYWGQGTQVTVSS | high polyreactivity
21 | PVQHVESGGGLVQAGGSLRLSCAASGSTLRTYAMGWYRQAPGKERELVAAISFSTTSTYYADSVKGRFTISRDNAKNTVYLQMNSLKPEDTADYYCAAGPRTRYQPDLPGCYYSWGQGTQVTVSS | high polyreactivity
22 | QVQLVESGGGLVQAGGSLRLSCAASASTFTINAMGWYRQAPGKERELVAAISRSGGSTFYADSVKGRFTISRDNAKKTVYLQMNSLKPEDTAVYYCAARGVNRQGFNYWGQGTQVTVSS | high polyreactivity

Row | Sequence | polyreactivity (PSR sort gate)
23 | QVQLQESGGGLVQAGGSLRLSCAASGSIFDSTFMGWYRQAPGKERELVAGISYGTITYYADSVKGRFTISRDNAKHRVSAEEQPESGRYRGVLLRGYPAGQLFLACWGQGTQVTESS | high polyreactivity
24 | QVQLVESGGGLLQAGGSLRLSCAASGSTFYFYARGWYRQAPGKERELVAAITGSGGSTYYAVYVKGRFTISRDNSRNSVYLQMKSVKPEDTAVYYCAAGWWYYVHMDYWGQGTQVTVSS | high polyreactivity
25 | QVQLVESGGGLVQAGGSLRLSCPASGRTFKYYAMGCYRQSPGKESELVAAITSTGGSTYYADSVKGRFTISRDNAMNTVYLQMNSLKPEDTAVYYCNRYTQYRDRSDNHWGQGTQVTVSS | high polyreactivity
26 | QVQLVESGGGLVQAGGSLRLSCAASGSIFSNNAMGWYRQAPGKEREFVAAIRGRGTRAYYADSVKGRFTISRDNAKNTVYLQMNSLKPEDTAVYYCAASARTYVQSGYWGQGTQVTVSS | high polyreactivity
27 | QVQLVESGGGLVQAGGSLRLSCAASGITIAGYAMGWYRQAPGKERELVAAISSRGSSTRYADSVKGRFTISRDNAKNTVYLQMNSLKPEDSAVYYCAARNEYWGQGTQVTVSS | high polyreactivity
28 | QVQLVESGGGLVQAGGSLRLSCAASGSIFGLNAMGCYRQAPGKERELVAAISGGSTNYADSVKGRFTISRDNAKNTVYLQMNSLKPEDTAVYYCAARARRRYYYWGQGTQVTVSS | high polyreactivity
29 | QVQLVESGGGLVQAGGSLRLSCAASGSTFKPYTMGWYRPAPGKERELVAAISSVDSTYYADSVKGRFTISRDNAKKTVYLQMNSLKPEDTAVYDCNKRKSPTFTYAMNYWGQGTQGTVSS | low polyreactivity
30 | QVQLVESGGGLVQAGGSLRLSCAASGRTFDDNAMGWYRQAPGKERELVAAISSTGSTNYADSVKGRFTISRDNAKNTVYLQMNSLKPEDTAVYYCNTDRGHERAYYYWGQGTQVTVSS | low polyreactivity
31 | QVQLVESGGGLVQAGGSLRLSCAASGITFLWNARGWYRQAPGKERELVAVISIGGSTYYADSVKGRFTISRDNAKNTVYLQMNSLKPEDTAVYYCAATEGPAYDYEYWGQGTQVTVSS | low polyreactivity
32 | QVQLVESGGGLVQAGGSLRLSCAASGFIFEPYAMGWYRQAPGKERELVAAISSGGSTYADSVKGRFTISRDNAKNTVYLQMNSLKPEDTAVYYCAADSYYSVWGFYYWGQGTQVTVSS | low polyreactivity
33 | QVQLVESGGGLVQAGGILRLSCAASGSTLGYYAMGWYRQAPGKERELVAAISWSGGRTYYADSVKGRFTISRDNAKNTVYLQMNSLKQEDTAFYYCNALNRTHYTGSDFYSWGQGTQVTVSS | high polyreactivity
34 | QVQLVESGGGLVQAGGSLRLSCAASGRTIPFYAMGWYRQAPGKERELVAAISSSAGRTYYADSVKGRFSISRDNAKNTVYLQLNSLKPEDTAVYYCAARLYCRYRYDYWGQGTQVTVSS | low polyreactivity
35 | QVQLVESGGGLDQAGGRLRLSCAASGIIFPIYAMRLYRQAPGKERELVAGISTGGGGTYYADSVKGRFTISRDNAKNTVYLQMNSLKPEDSAVYYCSTSGPLYYSRNFDYWGQGTQVTVSS | low polyreactivity
36 | QVQLVESGGGLVQAGGSLRLSCAASGFIFAGYALGWYRQAPGKERELVAAISSGGGSTYYADSVKGRFTISRDNAKNTGYLQMNSLKPEDTAVYYCAARRLYPPGYYYWGQGTQVTVSS | high polyreactivity
37 | QVQLVESGGGLVQAGGSLRLSCVASGRIFARNAMGWYRQAPGKERELVAAISGSGVRTYYADSVKGRFTISRDNAKNTVYLQMNSLKPEDTAVYYCNAVSGGHRSRYGYWGQGTQVTVSS | high polyreactivity
38 | QVQLVESGGGLVQAGGSLRLSCAASGSIFDYNTMGWYRQAPGKERELVAVISGTGGSTYYADSVKGRFTISRGNAKNTVYLQMNSLKPEDTAVYYCAADTFVRNQWYLVEYWGQGTQVTVSS | low polyreactivity
39 | QVQLQESGGGLVLAGGSLRLSCSASGNIYVYGYKGWYRQAPRKEREFVATIDPGTNTNYADSVKDRFSISRDNAKNSVYLQMKSLKPEDNAVYYCAVEAGSDWPYRYWGLGTQVTVSS | low polyreactivity
40 | QVQLVESGGGLFQAGGSLRLSCAASGRIFPWNTMGWYRQAPGKERELVAGINNGDRTYYADSVKGRFTISRVNAKNTVYLQMNSLKPEDTAVYYCAVDTWYFLFQYGYYQEGDYWGQGTQVTVSS | low polyreactivity
41 | QVQLVESGGGLVQAGGSLRLSCAASGSTFCFNAMGWSRQAPGKEREMVAAIPSRGGSTYYADSVKGRFTSSRDNAKKTVYLQMKSLKPEDTAVYYCASDYFGFSYAGYNYWGQGTQVTVSS | low polyreactivity
42 | QVQLVESGGGLVQAGGSLRLSCAASGNTFSRYAMGWYRQAPGKERELVAAISYSTGSTRYADSVKGRFTISRDNAKNTVYLQMNSLKPEDTAVYYCAARAKSRGYWGQGTQVTVSS | high polyreactivity
43 | QFQLVESGGGFVQAGGSLRLSCAASGRIFKTYMGWYRQAPGKESELVAGITRGGGSTYYADSVKGRFTISRDNAKNTVYLQMNSLKPEDTAVYYCAADAWSSYLDRPFDYWGQGTQVTVSS | high polyreactivity

Source: the nanobody polyreactivity screen of Harvey et al. (2022)
